# Test results as given in US10106577B2, “Agonists of neurotrophin receptors and their use as medicaments” (BIONURE FARMA, S.L., priority 2010, dated 2018).
# Columns and labels:
# [1] = test system: SH-SY5Y cells; assay: Parkinson's disease in vitro model (MPTP stress, MTT); type: cell-based, human; settings: MPTP 100 μM, 24 hrs; pre-treated 3 hours; BDNF 20 ng/ml
# Experimental: The human neuroblastoma cell line SH-SY5Y was maintained in culture with 50% Ham's F12 medium and 50% EMEM medium, supplemented with 10% FBS, […] L-glutamine and 1% penicillin/streptomycin. The cell culture was maintained in a humidified atmosphere of 95% air and CO2 at 37° C.
# The SH-SY5Y cells after differentiation to neuronal phenotype with retinoic acid, were pre-treated for 3 hours with the test compounds at different concentrations (20 ng/ml, 100 ng/ml, 2 μg/ml, 20 μg/ml and 50 μg/ml) or BDNF (20 ng/ml) as a positive control. Then 1-methyl-4-phenyl-1,2,3,6-tetrahydropyridine (MPTP) (100 μM) was added and incubated for 24 hrs. The number of surviving cells was determined the day after by 3-(4,5-dimethylthiazol-2-yl)-2,5-diphenyltetrazolium bromide (MTT) assay.
# [2] = test system: ATF-2; assay: Luminex signalling assay in SH-SY5Y; type: cell-based, human; settings: G79 100 ng/ml and 20 μg/ml, BDNF 20 ng/ml; 30 min, 1 h, 2 h, 6 h
# Description: (§1) The human neuroblastoma cell line SH-SY5Y was used to perform Luminex signalling assays using the 10-Plex MAPK/SAPK Signaling Kit-Phosphoprotein (Millipore). This cell line expresses the TrkB receptor and the MAPK/SAPK signalling pathway is typically activated by the tyrosinkinase receptors. The phosphoprotein antibodies included into the kit are the following: ERK/MAP kinase (Thr185/Tyr187); STAT-1 (Tyr701); JNK (Thr183/Tyr185); MEK-1 (Ser212); ATF-2 (Thr69/71); p53 (Ser15); HSP27 (Ser78); c-Jun (Ser73); p38 (Thr180/Tyr182), p70 S6 kinase (Thr412); IkBα (Ser32) (purchased from Millipore).
# (§2) The cells were propagated and then seeded into 24-well plates (30.000 cell/well). After 24 hours, the cells were treated with two different concentrations of NGF-receptor agonist G79: 100 ng/ml and 20 μg/ml. After adding G79 into the medium, the cells were collected in the lysis buffer of the kit at the following time points: 30 min, 1 h, 2 h, and 6 h. The assay was performed in this way to assess both time and dose effects comparing the treated samples with the untreated cells used as negative controls (unstimulated SH-SY5Y cells). BDNF was used as positive control at the concentration 20 ng/ml, which is the best working concentration known in literature. In the Luminex plate, each sample was added into a well in duplicate. After adding all the samples, the specific positive and negative controls of phosphorilation, included in the Luminex kit, were added. The assay buffer was also added in duplicate, as a background controls.
# (§3) In the circles are the activated factors, while in the grey circles are the tested factors. Its effects of the SY-SY5Y cell line in the phosphorilation of several pathways were assessed using xMAP assay from Luminex. […] The levels of activation are expressed as Median Fluorescence Intensity (MFI).
# [3] = test system: HSP-27; assay: Luminex signalling assay in SH-SY5Y; type: cell-based, human; settings: G79 100 ng/ml and 20 μg/ml, BDNF 20 ng/ml; 30 min, 1 h, 2 h, 6 h
# Description: as §1, §2, §3
# [4] = test system: JNK; assay: Luminex signalling assay in SH-SY5Y; type: cell-based, human; settings: G79 100 ng/ml and 20 μg/ml, BDNF 20 ng/ml; 30 min, 1 h, 2 h, 6 h
# Description: as §1, §2, §3
# [5] = test system: STAT-1; assay: Luminex signalling assay in SH-SY5Y; type: cell-based, human; settings: G79 100 ng/ml and 20 μg/ml, BDNF 20 ng/ml; 30 min, 1 h, 2 h, 6 h
# Description: as §1, §2, §3
# [6] = test system: NSC-34 cells; assay: In vitro model of ALS, serum deprivation of motoneuron-like cells (MTT); type: cell-based, mouse; settings: BDNF 20 ng/ml; serum deprivation 48 h
# Experimental: Mouse motoneuron-like cells NCS-34 were cultured in DMEM (Gibco) supplemented with 10% heat inactivated FBS and 1% penicillin/streptomycin. The cell culture was maintained in a humidified atmosphere of 95% air and CO2 at 37° C.
# The nutritional deprivation stress in motorneurons was conducted as described previously in Masahito T. et al., J. Neuropathol. Exp. Neurol. 65(8):816-825 (2006). To assess the effect of trophic stress condition on ALS, the presence of apoptosis was investigated using serum deprivation. NSC-34 cells were seeded in 24-well poly-lysinated plates at 30,000 cells/well and preincubated for 24 h in DMEM plus 10% FBS with various doses of G79, G80, and G81 (20 ng/ml, 100 ng/ml, 2 μg/ml, 20 μg/ml, 50 μg/ml), and G-CSF (2 μg/ml) or BDNF (20 ng/ml) which both were used as positive controls (Masahito T. et al., ibid; Elliot J. L., Neurobiology of Disease 6:310-320 (1999)). Then, the medium was removed and replaced with fresh DMEM without FBS. After 48 h, cell viability was assayed by MTT assay, as described previously.
molecule,measurement,setting,value
"BDNF: brain-derived neurotrophic factor, neurotrophin used as positive control (protein, UniProt P23560 19-247, looked up) Neurotrophic factor BDNF …: APMKEANIRGQGGLAYPGVRTHGTLESVNGPKAGSRGLTSLADTFEHVIEELLDEDQKVRPNEENNKDADLYTSRVMLSSQVPLEPPLLFLLEEYKNYLDAANMSMRVRRHSDPARRGELSVCDSISEWVTAADKKTAVDMSGGTVTVLEKVPVSKGQLKQYFYETKCNPMGYTKEGCRGIDKRHWNSQCRTTQSYVRALTMDSKKRIGWRFIRIDTSCVCTLTIKRGR","protection of neuronal cells against MPTP (surviving cells, MTT)",[1],significant protection of neuronal cells
same,ATF-2 phospho-activation (MFI) compared to unstimulated control,[2],significant ATF-2 activation at 2 h after treatment
same,HSP-27 phospho-activation (MFI) compared to unstimulated control,[3],does not activate HSP-27
same,JNK phospho-activation (MFI) compared to unstimulated control,[4],significant JNK activation at 2 h after treatment
same,STAT-1 phospho-activation (MFI) compared to unstimulated control,[5],did not activate STAT-1
same,"cell viability, percentage relative to the control without stress",[6],80.62±5.2%
